Test results reported in US20240409647A1, “BISPECIFIC BINDING PROTEINS AGAINST ALARMINS AND USES THEREOF” (SINOMAB BIOSCIENCE LIMITED, priority 2022, published 2024).
“And” between values parts separate entries of the source, which are not always exact repeats. Equal entries are not always repeated.

Assays:
IL-17RB = biological target: T1, IL-17RB (Homo sapiens, UniProt Q9NRM6); experiment: ELISA, SM17 binding to coated IL-17RB protein (human); settings: two wells
T1 construct: purchased R&D systems
T1 sequence (Q9NRM6 18-502): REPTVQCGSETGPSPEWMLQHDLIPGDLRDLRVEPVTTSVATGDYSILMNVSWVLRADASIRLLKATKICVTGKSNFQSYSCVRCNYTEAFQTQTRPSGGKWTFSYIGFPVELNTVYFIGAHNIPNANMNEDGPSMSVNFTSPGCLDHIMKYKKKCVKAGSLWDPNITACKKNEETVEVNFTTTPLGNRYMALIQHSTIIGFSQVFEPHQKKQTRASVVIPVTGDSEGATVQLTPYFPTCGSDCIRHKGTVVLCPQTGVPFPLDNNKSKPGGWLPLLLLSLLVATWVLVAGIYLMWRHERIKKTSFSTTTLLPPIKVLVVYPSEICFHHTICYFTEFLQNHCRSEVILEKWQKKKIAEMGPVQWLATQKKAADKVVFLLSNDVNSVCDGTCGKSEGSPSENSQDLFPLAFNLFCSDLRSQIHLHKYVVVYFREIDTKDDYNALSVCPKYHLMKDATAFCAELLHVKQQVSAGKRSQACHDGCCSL
Procedure: (§1) A standard enzyme-linked immunosorbent assay (ELISA) method was used to determine the species specificity of SM17 against IL-17RB proteins. Briefly, IL-17RB proteins from human, mouse, cynomolgus or rhesus monkey (R&D systems, Minneapolis, MN) were diluted to 2.5 μg/ml in PBS and 50 μl of IL-17RB proteins were added to each well of ELISA strip. The strips were sealed with parafilm and incubated at 4° C. overnight for coating.
(§2) On the next day, strips were washed thrice with washing buffer (0.05% Tween 20 in PBS) and blocked with 100 μl per well with blocking buffer (3% BSA in PBS) for 2 hours RT before serially diluted SM17 (at a final concentration of 10, 2, 0.4, 0.08, 0.016, 0.0032, and 0.00064 μg/ml, respectively) was added.

cynomolgus IL17RB = experiment: ELISA, SM17 binding to coated IL-17RB protein (cynomolgus); settings: two wells
Procedure: as §1, §2

hIL17RA = biological target: T2, hIL17RA (Homo sapiens, UniProt Q96F46); experiment: ELISA, SM17 specificity against IL-17 receptor subunits (IL17RA); type: binding; settings: 0.4 to 0.00064 μg/mL
T2 construct: purchased R&D systems
Procedure: (§3) A standard ELISA method was used to determine the specificity of SM17 against other human IL17 receptor subunits. Similarly, serially diluted SM17 at different concentrations (final concentrations at 0.4, 0.08, 0.016, 0.0032 and 0.00064 μg/m, respectively) was added to the wells of ELISA plates coated either with human IL-17 receptor subunits A, C, D and E (IL17RA, IL17RC, IL17RD, and IL17RE) (R&D systems).

hIL17RC = biological target: T3, hIL17RC (Homo sapiens, UniProt Q8NAC3); experiment: ELISA, SM17 specificity against IL-17 receptor subunits (IL17RC); type: binding; settings: 0.4 to 0.00064 μg/mL
T3 construct: purchased R&D systems
T3 sequence (Q8NAC3 21-791): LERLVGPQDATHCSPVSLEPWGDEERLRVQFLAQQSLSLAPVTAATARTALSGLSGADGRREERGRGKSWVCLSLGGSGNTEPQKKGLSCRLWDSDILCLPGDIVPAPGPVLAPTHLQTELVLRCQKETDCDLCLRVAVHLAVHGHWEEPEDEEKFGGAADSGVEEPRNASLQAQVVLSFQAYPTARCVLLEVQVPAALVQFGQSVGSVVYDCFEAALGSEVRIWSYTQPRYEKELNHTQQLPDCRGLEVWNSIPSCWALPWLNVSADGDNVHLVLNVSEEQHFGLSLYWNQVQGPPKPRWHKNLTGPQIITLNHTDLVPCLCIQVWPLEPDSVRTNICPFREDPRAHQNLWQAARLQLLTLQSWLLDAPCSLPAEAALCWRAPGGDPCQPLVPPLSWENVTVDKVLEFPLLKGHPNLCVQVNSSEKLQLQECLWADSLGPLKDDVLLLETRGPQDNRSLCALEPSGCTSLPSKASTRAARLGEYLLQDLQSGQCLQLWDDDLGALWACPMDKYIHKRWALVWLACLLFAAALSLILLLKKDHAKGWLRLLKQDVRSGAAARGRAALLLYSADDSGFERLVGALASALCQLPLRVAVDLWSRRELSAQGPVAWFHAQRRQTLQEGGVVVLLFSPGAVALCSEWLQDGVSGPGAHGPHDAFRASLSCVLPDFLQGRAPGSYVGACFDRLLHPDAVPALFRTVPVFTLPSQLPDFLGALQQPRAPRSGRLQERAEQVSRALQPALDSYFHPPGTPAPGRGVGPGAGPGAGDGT
Procedure: as §3

TSLP = biological target: T4, TSLP (Homo sapiens, UniProt Q969D9); experiment: Bio-Layer Interferometry (Octet), binding kinetics of bsBp to human TSLP
T4 construct: purchased R&D systems
Procedure: The binding affinity of bsBp to the targeted alarmins was determined using a bio-Layer Interferometry analysis (Octet ReD96 system, Sartorius). bsBp or SM17 (20 μg/mL) was immobilized on biosensors via binding to anti-human Fab CH1 region; serially diluted human IL33 and TSLP (158.7 nM, 79.4 nM, 39.7 nM) (R&D systems) were added to plot the association and dissociation curve according to the manufacturer's specification. Biosensors immobilized with irrelevant antibody (SM03, anti-human CD22 chimeric IgG1 antibody, SinoMab BioScience Limited, 20 μg/mL) were used as control reference.

- OD 450 nm Absorption, human IL17RB (IL-17RB; SM17 0.016 μg/mL): 0.17
- OD 450 nm Absorption, human IL17RB (IL-17RB; SM17 0.08 μg/mL): 0.58 and 0.44
- OD 450 nm Absorption, human IL17RB (IL-17RB; SM17 0.4 μg/mL): 1.10 and 1.14
- OD 450 nm Absorption, human IL17RB (IL-17RB; SM17 2 μg/mL): 1.74 and 1.61
- OD 450 nm Absorption, human IL17RB (IL-17RB; SM17 10 μg/mL): 1.82 and 1.88
- OD 450 nm Absorption, cynomolgus IL17RB (cynomolgus IL17RB; SM17 0.016 μg/mL): 0.34
- OD 450 nm Absorption, cynomolgus IL17RB (cynomolgus IL17RB; SM17 0.08 μg/mL): 0.72 and 0.74
- OD 450 nm Absorption, cynomolgus IL17RB (cynomolgus IL17RB; SM17 0.4 μg/mL): 0.89 and 0.97
- OD 450 nm Absorption, cynomolgus IL17RB (cynomolgus IL17RB; SM17 2 μg/mL): 1.13 and 1.12
- OD 450 nm Absorption, cynomolgus IL17RB (cynomolgus IL17RB; SM17 10 μg/mL): 1.33 and 1.37
- binding of SM17 to IL17RA (in words) (hIL17RA): No obvious bindings
- binding of SM17 to IL17RC (in words) (hIL17RC): No obvious bindings
- Kdis (TSLP): 0.001 s⁻¹
- Ka (TSLP; bsBp or SM17 immobilized at 20 μg/mL): 10000 M⁻¹ s⁻¹
Substance: SM17: humanized anti-IL17RB monoclonal antibody, human IgG4 isotype; HC SEQ ID NO: 32, LC SEQ ID NO: 33
